Source: patent US20260002156

T1: fluorogenic peptide substrate to ADAM10 (Mca-PLAQAV-Dpa-RSSR)
T1 chain: PLAQAVXRSSR

B1: ADAM10 on the surface of HCC cells (HepG2) (protein)
chain: TTSAEKNTCQLYIQTDHLFFKYYGTREAVIAQISSHVKAIDTIYQTTDFSGIRNISFMVKRIRINTTADEKDPTNPFRFPNIGVEKFLELNSEQNHDDYCLAYVFTDRDFDDGVLGLAWVGAPSGSSGGICEKSKLYSDGKKKSLNTGIITVQNYGSHVPPKVSHITFAHEVGHNFGSPHDSGTECTPGESKNLGQKENGNYIMYARATSGDKLNNNKFSLCSIRNISQVLEKKRNNCFVESGQPICGNGMVEQGEECDCGYSDQCKDECCFDANQPEGRKCKLKPGKQCSPSQGPCCTAQCAFKSKSEKCRDDSDCAREGICNGFTALCPASDPKPNFTDCNRHTQVCINGQCAGSICEKYGLEECTCASSDGKDDKELCHVCCMKKMDPSTCASTGSVQWSRHFSGRTITLQPGSPCNDFRGYCDVFMRCRLVDADGPLARLKKAIFSPELYENIAEWIVAHWWAVLLMGIALIMLMAGFIKICSVHTPSSNPKLPPPKPLPGTLKRRRPPQPIQQPQRQRPRESYQMGHMRR
B2: recombinant human ADAM10 (rhADAM10) (protein)
chain: TTSAEKNTCQLYIQTDHLFFKYYGTREAVIAQISSHVKAIDTIYQTTDFSGIRNISFMVKRIRINTTADEKDPTNPFRFPNIGVEKFLELNSEQNHDDYCLAYVFTDRDFDDGVLGLAWVGAPSGSSGGICEKSKLYSDGKKKSLNTGIITVQNYGSHVPPKVSHITFAHEVGHNFGSPHDSGTECTPGESKNLGQKENGNYIMYARATSGDKLNNNKFSLCSIRNISQVLEKKRNNCFVESGQPICGNGMVEQGEECDCGYSDQCKDECCFDANQPEGRKCKLKPGKQCSPSQGPCCTAQCAFKSKSEKCRDDSDCAREGICNGFTALCPASDPKPNFTDCNRHTQVCINGQCAGSICEKYGLEECTCASSDGKDDKELCHVCCMKKMDPSTCASTGSVQWSRHFSGRTITLQPGSPCNDFRGYCDVFMRCRLVDADGPLARLKKAIFSPELYENIAE

Biological target: T1, fluorogenic peptide substrate to ADAM10 …

| Protein | fluorescence intensity (fluorogenic peptide cleavage assay) |
| --- | --- |
| B1 | after incubation with HCC cells, the fluorogenic peptide significantly increased the fluorescence intensity, stronger than the recombinant human ADAM10 (rhADAM10) which serves as a positive control |
| B2 | the recombinant human ADAM10 (rhADAM10) which serves as a positive control |
